Test results as given in patent US20120316071A1 (published 2012).

Experiments:
[1] = target: T1, Recombinant Human DLL4 (delta-like protein 4) (human, UniProt Q9NR61 27-524); assay: ELISA on plate-coated DLL4, 100 nM Fab
T1 construct: Bought recombinant protein (R&D Systems Cat#1506-D4/CF); also called rHuman DLL4

[2] = target: T1, Recombinant Human DLL4 (delta-like …); assay: ECL 96-well plate assay on immobilised DLL4, 10 nM Fab

| ELISA signal [1] | ECL signal [2] | Binder |
| --- | --- | --- |
| 0.65 | 68800 | Fab VH1-46_IGHD6-6*01_IGHJ1*01 S102A/S103P/S104F/H111F G56H & L6_IGKJ1*01 (Fab, V domains shown, Fab from E. coli; CH1 (with His and Flag tags) and kappa CL come from the expression plasmids; also called APFF G56H) VH: QVQLVQSGAEVKKPGASVKVSCKASGYTFTSYYMHWVRQAPGQGLEWMGIINPSGHSTSYAQKFQGRVTMTRDTSTSTVYMELSSLRSEDTAVYYCAREEYAPFSAEYFQFWGQGTLVTVSS VL: not shown |
| 1.23 | 71700 | Fab VH1-46_IGHD6-6*01_IGHJ1*01 S102A/S103P/S104F/H111F I51T/N52V & L6_IGKJ1*01 (Fab, V domains shown, Fab from E. coli; CH1 (with His and Flag tags) and kappa CL come from the expression plasmids; also called APFF I51T/N52V) VH: QVQLVQSGAEVKKPGASVKVSCKASGYTFTSYYMHWVRQAPGQGLEWMGITVPSGGSTSYAQKFQGRVTMTRDTSTSTVYMELSSLRSEDTAVYYCAREEYAPFSAEYFQFWGQGTLVTVSS VL: not shown |
| 1.06 | 75500 | Fab VH1-46_IGHD6-6*01_IGHJ1*01 S102A/S103P/S104F/H111F N52L & L6_IGKJ1*01 (Fab, V domains shown, Fab from E. coli; CH1 (with His and Flag tags) and kappa CL come from the expression plasmids; also called APFF N52L) VH: QVQLVQSGAEVKKPGASVKVSCKASGYTFTSYYMHWVRQAPGQGLEWMGIILPSGGSTSYAQKFQGRVTMTRDTSTSTVYMELSSLRSEDTAVYYCAREEYAPFSAEYFQFWGQGTLVTVSS VL: not shown |
| 0.23 | 77000 | Fab VH1-46_IGHD6-6*01_IGHJ1*01 S102A/S103P/S104F/H111F G56I & L6_IGKJ1*01 (Fab, V domains shown, Fab from E. coli; CH1 (with His and Flag tags) and kappa CL come from the expression plasmids; also called APFF G56I) VH: QVQLVQSGAEVKKPGASVKVSCKASGYTFTSYYMHWVRQAPGQGLEWMGIINPSGISTSYAQKFQGRVTMTRDTSTSTVYMELSSLRSEDTAVYYCAREEYAPFSAEYFQFWGQGTLVTVSS VL: not shown |
| 0.2 | 60700 | Fab VH1-46_IGHD6-6*01_IGHJ1*01 S102A/S103P/S104F/H111F G56T & L6_IGKJ1*01 (Fab, V domains shown, Fab from E. coli; CH1 (with His and Flag tags) and kappa CL come from the expression plasmids; also called APFF G56T) VH: QVQLVQSGAEVKKPGASVKVSCKASGYTFTSYYMHWVRQAPGQGLEWMGIINPSGTSTSYAQKFQGRVTMTRDTSTSTVYMELSSLRSEDTAVYYCAREEYAPFSAEYFQFWGQGTLVTVSS VL: not shown |
| 0.47 | 55600 | Fab VH1-46_IGHD6-6*01_IGHJ1*01 S102A/S103P/S104F/H111F N52G & L6_IGKJ1*01 (Fab, V domains shown, Fab from E. coli; CH1 (with His and Flag tags) and kappa CL come from the expression plasmids; also called APFF N52G) VH: QVQLVQSGAEVKKPGASVKVSCKASGYTFTSYYMHWVRQAPGQGLEWMGIIGPSGGSTSYAQKFQGRVTMTRDTSTSTVYMELSSLRSEDTAVYYCAREEYAPFSAEYFQFWGQGTLVTVSS VL: not shown |
| 0.42 | 87000 | Fab VH1-46_IGHD6-6*01_IGHJ1*01 S102A/S103P/S104F/H111F N52W & L6_IGKJ1*01 (Fab, V domains shown, Fab from E. coli; CH1 (with His and Flag tags) and kappa CL come from the expression plasmids; also called APFF N52W) VH: QVQLVQSGAEVKKPGASVKVSCKASGYTFTSYYMHWVRQAPGQGLEWMGIIWPSGGSTSYAQKFQGRVTMTRDTSTSTVYMELSSLRSEDTAVYYCAREEYAPFSAEYFQFWGQGTLVTVSS VL: not shown |
| 0.2 | 64300 | Fab VH1-46_IGHD6-6*01_IGHJ1*01 S102A/S103P/S104F/H111F G56R & L6_IGKJ1*01 (Fab, V domains shown, Fab from E. coli; CH1 (with His and Flag tags) and kappa CL come from the expression plasmids; also called APFF G56R) VH: QVQLVQSGAEVKKPGASVKVSCKASGYTFTSYYMHWVRQAPGQGLEWMGIINPSGRSTSYAQKFQGRVTMTRDTSTSTVYMELSSLRSEDTAVYYCAREEYAPFSAEYFQFWGQGTLVTVSS VL: not shown |
| 0.18 | 65700 | Fab VH1-46_IGHD6-6*01_IGHJ1*01 S102A/S103P/S104F/H111F G56S & L6_IGKJ1*01 (Fab, V domains shown, Fab from E. coli; CH1 (with His and Flag tags) and kappa CL come from the expression plasmids; also called APFF G56S) VH: QVQLVQSGAEVKKPGASVKVSCKASGYTFTSYYMHWVRQAPGQGLEWMGIINPSGSSTSYAQKFQGRVTMTRDTSTSTVYMELSSLRSEDTAVYYCAREEYAPFSAEYFQFWGQGTLVTVSS VL: not shown |
| 0.54 | 69600 | Fab VH1-46_IGHD6-6*01_IGHJ1*01 S102A/S103P/S104F/H111F G56W & L6_IGKJ1*01 (Fab, V domains shown, Fab from E. coli; CH1 (with His and Flag tags) and kappa CL come from the expression plasmids; also called APFF G56W) VH: QVQLVQSGAEVKKPGASVKVSCKASGYTFTSYYMHWVRQAPGQGLEWMGIINPSGWSTSYAQKFQGRVTMTRDTSTSTVYMELSSLRSEDTAVYYCAREEYAPFSAEYFQFWGQGTLVTVSS VL: not shown |
| 0.19 | 66200 | Fab VH1-46_IGHD6-6*01_IGHJ1*01 S102A/S103P/S104F/H111F G56K & L6_IGKJ1*01 (Fab, V domains shown, Fab from E. coli; CH1 (with His and Flag tags) and kappa CL come from the expression plasmids; also called APFF G56K) VH: QVQLVQSGAEVKKPGASVKVSCKASGYTFTSYYMHWVRQAPGQGLEWMGIINPSGKSTSYAQKFQGRVTMTRDTSTSTVYMELSSLRSEDTAVYYCAREEYAPFSAEYFQFWGQGTLVTVSS VL: not shown |
| 0.1 | 60600 | Fab VH1-46_IGHD6-6*01_IGHJ1*01 S102A/S103P/S104F/H111F N52Q & L6_IGKJ1*01 (Fab, V domains shown, Fab from E. coli; CH1 (with His and Flag tags) and kappa CL come from the expression plasmids; also called APFF N52Q) VH: QVQLVQSGAEVKKPGASVKVSCKASGYTFTSYYMHWVRQAPGQGLEWMGIIQPSGGSTSYAQKFQGRVTMTRDTSTSTVYMELSSLRSEDTAVYYCAREEYAPFSAEYFQFWGQGTLVTVSS VL: not shown |
| 0.24 | 64700 | Fab VH1-46_IGHD6-6*01_IGHJ1*01 S102A/S103P/S104F/H111F N52V & L6_IGKJ1*01 (Fab, V domains shown, Fab from E. coli; CH1 (with His and Flag tags) and kappa CL come from the expression plasmids; also called APFF N52V) VH: QVQLVQSGAEVKKPGASVKVSCKASGYTFTSYYMHWVRQAPGQGLEWMGIIVPSGGSTSYAQKFQGRVTMTRDTSTSTVYMELSSLRSEDTAVYYCAREEYAPFSAEYFQFWGQGTLVTVSS VL: not shown |
